Two substances from patent US20240293576A1 can be followed below.

Experiment [1] deals with HIV virus pAD-8 (HIV-1). In words: cell-based or functional assay.
Experiment [2] concerns the target HIV virus pNL4-3 (HIV-1). In words: cell-based or functional assay.

Take “anti-HIV broad-spectrum neutralizing antibody 10E8V4-5R+100cF”: in experiment [1], the AD-8 RLU (TZMbl luciferase, neutralisation by supernatant) is 976000 RLU. For the same substance, in experiment [2], the pNL4-3 RLU (TZMbl luciferase, neutralisation by supernatant) was found to be 121000 RLU.
“anti-HIV broad-spectrum neutralizing antibody PGT128” gave an AD-8 RLU (TZMbl luciferase, neutralisation by supernatant) in experiment [1] of 147000 RLU. In addition, the pNL4-3 RLU (TZMbl luciferase, neutralisation by supernatant) in experiment [2] was 474000 RLU.
